Assay results taken from PMC10127577 (2023).

T1: CDTb protoxin (proCDTb), CDTb residues 43 to 876 (Clostridioides difficile, UniProt O32739 43-876)
T1 chain: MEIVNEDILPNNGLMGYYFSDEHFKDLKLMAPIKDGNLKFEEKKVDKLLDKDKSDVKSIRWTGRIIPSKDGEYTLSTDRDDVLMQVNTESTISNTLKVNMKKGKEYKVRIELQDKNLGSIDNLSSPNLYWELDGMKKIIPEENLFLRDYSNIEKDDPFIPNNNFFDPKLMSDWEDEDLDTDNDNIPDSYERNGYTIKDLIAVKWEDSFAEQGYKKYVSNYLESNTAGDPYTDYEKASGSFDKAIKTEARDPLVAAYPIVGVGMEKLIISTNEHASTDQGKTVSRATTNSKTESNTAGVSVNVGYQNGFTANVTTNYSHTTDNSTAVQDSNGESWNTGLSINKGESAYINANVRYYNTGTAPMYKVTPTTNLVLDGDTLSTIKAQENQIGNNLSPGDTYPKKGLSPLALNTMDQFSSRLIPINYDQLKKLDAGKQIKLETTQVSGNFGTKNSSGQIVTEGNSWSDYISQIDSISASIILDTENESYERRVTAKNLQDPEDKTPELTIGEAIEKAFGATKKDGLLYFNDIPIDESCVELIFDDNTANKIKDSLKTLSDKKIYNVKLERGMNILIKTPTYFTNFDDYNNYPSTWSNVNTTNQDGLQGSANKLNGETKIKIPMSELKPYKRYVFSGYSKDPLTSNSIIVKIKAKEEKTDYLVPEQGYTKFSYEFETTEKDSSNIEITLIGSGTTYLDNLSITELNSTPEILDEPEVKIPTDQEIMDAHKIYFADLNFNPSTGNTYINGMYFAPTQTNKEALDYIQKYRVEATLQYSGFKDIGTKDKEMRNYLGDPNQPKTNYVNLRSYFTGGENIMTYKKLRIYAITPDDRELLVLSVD


Molecular target: T1, CDTb protoxin (proCDTb), CDTb residues …
Assay: SPR

Binder	koff [s⁻¹]
BINTOXB/22 Fab (Fab, V domains shown) VH: QIQLVQSGPELKKPGETVKISCKASGYTFTNYGMNWVKQAPGKDLKWMGWMSTYTGEPTYADDFKGRFAFSLETSASTAYLQINNLKNEDMATYFCARRGNYLSFDYWGQGTTLTVSS VL: DIVMTQSHKFMSTSVGDRVSITCKASQDVSTAVGWYQQKPGQSPKLLIYSASYRYTGVPDRFTGSGSGTDFTFTISSVQAEDLAVYYCQQHYSPPFTFGSGTELEIK	0.00299
BINTOXB/9 Fab (Fab, V domains shown) VH: QVQLQQSGAELARPGASVKMSCKASGYTFTSYTMHWVKQRPGQGLEWIGYINPSNDYTSYNQKFKDKATLTADKSSSTAYMQLSSLTSEDSAVYYCARCWGYDPYYFDYWGQGTTLTVSS VL: DIVMSQSPSLLAVSAGEKVTMSCKSSQSLLNSRTRKNYLAWYQQKPGQSPKVLIYWASTRESGVPDRFTGSGSGTDFTLTISSVQAEDLAVYYCKQSYNLLTFGAGTKLELK	0.000227
